The values below come from US20210145935A1.

In experiment [1] the target is H1N1 pseudotyped lentiviral particles (H1 and N1 from swine H1N1 A/California/04/09) (influenza A virus H1N1 A/California/04/09). Description: cell-based or functional assay.
Experiment [2] addresses H3N2 pseudotyped lentiviral particles (H3 from A/Denmark/70/03, N2 from A/Texas/50/2012) (influenza A virus H3N2 A/Denmark/70/03; influenza A virus H3N2 A/Texas/50/2012). Description: cell-based or functional assay.

Sequence of recombinant vaccinia virus complement control protein (VCP) (P68638 20-263): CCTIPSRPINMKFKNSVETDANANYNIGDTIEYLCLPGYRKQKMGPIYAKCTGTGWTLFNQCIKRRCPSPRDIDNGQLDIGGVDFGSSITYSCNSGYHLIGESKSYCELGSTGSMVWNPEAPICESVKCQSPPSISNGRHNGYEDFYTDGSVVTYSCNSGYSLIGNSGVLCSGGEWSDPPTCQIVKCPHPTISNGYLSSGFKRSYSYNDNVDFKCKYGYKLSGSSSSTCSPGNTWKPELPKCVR

With “recombinant vaccinia virus complement control protein (VCP) (from UniProt P68638 20-263)”, the luciferase reporter activity of transduced MDCK cells, 40 µg/ml protein amounted to 45 % reduction in experiment [1] and 30 % increase in experiment [2].
